{
  "source": "paper PMC3454426",
  "key": {"[1]": {"target": "Moniliophthora perniciosa necrosis- and ethylene-inducing protein 2 (MpNep2) (Moniliophthora perniciosa)", "assay": "dynamic light scattering; monomer 120 uM and dimer 45 uM in 20 mM phosphate, 80 mM NaCl, pH 7.4, 25°C"}, "[2]": {"target": "Moniliophthora perniciosa necrosis- and ethylene-inducing protein 2 (MpNep2) (Moniliophthora perniciosa)", "assay": "SEC; preparative Sephacryl S100 16/60 and analytical UFLC on Superdex 200 or 75, 0.7 mL/min; 20 mM phosphate pH 7.4, 80 mM NaCl; also at different ionic strengths and after 1 mM 2-mercaptoethanol"}},
  "data": [
    {"substance": "Moniliophthora perniciosa necrosis- and ethylene-inducing protein 2 (MpNep2) (natural protein)", "values": [
      {"measurement": "stoichiometry N", "setting": "[1]", "result": 2},
      {"measurement": "stoichiometry N", "setting": "[2]", "result": 2}
    ]}
  ]
}
